Laboratory results: US20250051449A1 (SURFACE ONCOLOGY, published 2025)

T1: CD112R-hIgG4 fusion protein (human, UniProt Q6DKI7 41-171, limits assumed)
T1 construct: also called human CD112R-hIgG4; not shown: human IgG4 portion (hIgG4)
T1 sequence (looked up): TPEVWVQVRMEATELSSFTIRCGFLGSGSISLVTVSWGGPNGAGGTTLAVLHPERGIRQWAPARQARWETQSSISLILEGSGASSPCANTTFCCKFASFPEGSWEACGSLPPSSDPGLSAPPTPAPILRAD


Tests used:
[1] = target: T2, mouse CD112R-hIgG4 fusion protein (mouse; human); test: blocking ELISA: coated mouse CD112, antibody plus mouse CD112R-hIgG4 (2 ug/mL)
T2 construct: also called soluble mouse CD112R; soluble murine CD112R
Protocol: The ability of species cross reactive anti-CD112R antibodies to block mouse CD112R binding to mouse CD112 was evaluated by ELISA. Briefly. 96 well Nunc Maxisorp plates were coated with 1 μg/mL of mouse CD112 (Sino Biological. Cat #50318-M08H) in PBS overnight at 4° C. […] After blocking, plates were washed 6× with PBST. Next. 50 μL of anti-CD112R antibodies or isotype control (Biolegend. Cat #403502) in PBS+1% BSA were added at a final starting concentration of 40 μg/mL, with 2-fold serial dilutions. 50 μL of a mouse CD112R-hIgG4 fusion protein was also added to each well at a final concentration of 2 μg/mL. Plates were incubated at room temperature for 1.5 hours. Next plates were washed 6× with PBST and then incubated with anti-IgG4 HRP (Thermo Fisher, Cat #MA1-33437) in 100 μL for 1 hour at room temperature. Plates were then washed 6× with PBST and developed with TMB substrate (Life Technologies. Cat #002023). The reaction was stopped with an equal volume of stop solution (Life Technologies. Cat #SS04). Absorbance at 450 nm (O.D. 450) was measured on a SpectraMax plate reader.
Results are depicted in FIG. 19 and Table 11. […] Percent inhibition was calculated as [100−((test sample O.D. 450/Max O.D. 450)*100%)] Max O.D. 450 was defined as absorbance at 450 nm in the absence of antibody.

[2] = target: T1, CD112R-hIgG4 fusion protein; test: blocking ELISA: coated CD112R-hIgG4, antibody, then biotinylated CD112 Fc
Protocol: The ability of anti-CD112R antibodies to block human CD112R was also evaluated by ELISA. Briefly, 96 well Nunc Maxisorp plates were coated with 1 μg/mL of a CD112R-hIgG4 fusion protein in PBS overnight at 4° C. […] After blocking, plates were washed 6× with PBST. Next, 100 μl of anti-CD112R antibodies in PBS+1% BSA was added at a final starting concentration of 10 μg/mL, with 4-fold serial dilutions. Plates were incubated at room temperature for 1.5 hours. Next plates were washed 6× with PBST and then incubated with 1 μg/ml CD112 Fc protein (R&D Systems, Cat #9317-N2-050) that was biotinylated with a sulfo-NHS biotinylation kit (Thermo Fisher, Cat #21925) in 100 μl of PBS+1% BSA for 1 hour at room temperature. Plates were then washed 6× with PBST and subsequently incubated with streptavidin-HRP (Biolegend, Cat #405210) diluted in PBS+1% BSA according to the manufacturer recommendation for 1 hour at room temperature. Following this incubation, plates were then washed 6× with PBST and developed with TMB substrate (Life Technologies, Cat #002023). The reaction was stopped with an equal volume of stop solution (Life Technologies, Cat #SS04). Absorbance at 450 nm (O.D. 450) was measured on a SpectraMax plate reader.
Results are depicted in FIG. 2B and Table 2. […] Percent inhibition was calculated as [100−((test sample O.D. 450/Max 0.D. 450)*100%)] Max O.D. 450 was defined as absorbance at 450 nm in the absence of antibody.

| Binder | mouse CD112/CD112R blocking ELISA max inhibition (%) [1] [%] | CD112 blocking max inhibition ELISA (%) [2] [%] |
| --- | --- | --- |
| Antibody 46 (antibody, V domains shown, in the mouse tumor studies it was used as mouse IgG2a; also called antibody clone number 46; clone 46) VH: EVQLVESGGGLVQPGRSLRLSCTASGFTFGDYAMSWFRQAPGKGLEWVGFIGSKAYGGTTEYTASVKGRFTISRDGSKSIAYLQMNSLKTEDTAVYYCARGPRRYTYGMDVWGQGTTVTVSS VL: DIQMTQSPSSLSASVGDRVTITCRASQSISSYLNWYQQKPGKAPKLLIYAASSLQSGVPSRFSGSGSGTDFTLTISSLQPEDFATYYCQQSSTPLTFGGGTKVEIK | 88 | 97.6 |
| Antibody 32 (antibody, V domains shown, Purified as IgG; compared with an IgG1 isotype control and detected with anti-human IgG Fc; also called antibody clone number 32; parent clone 32) VH: QVQLVQSGAEVKKPGSSVKVSCKASGGTFSSYAISWVRQAPGQGLEWMGGIIPISGTANYAQKFQGRVTITADESTSTAYMELSSLRSEDTAVYYCARDTGRGYTRHFWFDPWGQGTLVTVSS VL: DIQMTQSPSSLSASVGDRVTITCRASQSISSYLNWYQQKPGKAPKLLIYAASSLQSGVPSRFSGSGSGTDFTLTISSLQPEDFATYYCQQSDILYTFGGGTKVEIK | 0 | 75.1 |
| Antibody 35 (antibody, V domains shown, Purified as IgG; compared with an IgG1 isotype control and detected with anti-human IgG Fc; also called antibody clone number 35; clone 35) VH: QVQLVQSGAEVKKPGSSVKVSCKASGGTFSSAAISWVRQAPGQGLEWMGNIIPIVGIANYAQKFQGRVTITADESTSTAYMELSSLRSEDTAVYYCARDTGRGYTRHFWFDPWGQGTLVTVSS VL: DIQMTQSPSSLSASVGDRVTITCRASQSISSYLNWYQQKPGKAPKLLIYAASSLQSGVPSRFSGSGSGTDFTLTISSLQPEDFATYYCQQSDILYTFGGGTKVEIK | 24.2 | 81.7 |
| Antibody 36 (antibody, V domains shown, Purified as IgG; compared with an IgG1 isotype control and detected with anti-human IgG Fc; also called antibody clone number 36; clone 36) VH: QVQLVQSGAEVKKPGSSVKVSCKASGGTFATYAISWVRQAPGQGLEWMGGIFPLSGTANYAQKFQGRVTITADESTSTAYMELSSLRSEDTAVYYCARDTGRGYTRHFWFDPWGQGTLVTVSS VL: DIQMTQSPSSLSASVGDRVTITCRASQSISSYLNWYQQKPGKAPKLLIYAASSLQSGVPSRFSGSGSGTDFTLTISSLQPEDFATYYCQQSDILYTFGGGTKVEIK | 41.6 | 86.2 |
| Antibody 33 (antibody, V domains shown, Purified as IgG; compared with an IgG1 isotype control and detected with anti-human IgG Fc; also called antibody clone number 33; clone 33) VH: QVQLVQSGAEVKKPGSSVKVSCKASGGTFGNYAISWVRQAPGQGLEWMGGIIPIPGIANYAQKFQGRVTITADESTSTAYMELSSLRSEDTAVYYCARDTGRGYTRHFWFDPWGQGTLVTVSS VL: DIQMTQSPSSLSASVGDRVTITCRASQSISSYLNWYQQKPGKAPKLLIYAASSLQSGVPSRFSGSGSGTDFTLTISSLQPEDFATYYCQQSDILYTFGGGTKVEIK | 28.3 | 78.8 |
| Antibody 34 (antibody, V domains shown, Purified as IgG; compared with an IgG1 isotype control and detected with anti-human IgG Fc; also called antibody clone number 34; clone 34) VH: QVQLVQSGAEVKKPGSSVKVSCKASGGTFSSAAISWVRQAPGQGLEWMGGIFPISGHANYAQKFQGRVTITADESTSTAYMELSSLRSEDTAVYYCARDTGRGYTRHFWFDPWGQGTLVTVSS VL: DIQMTQSPSSLSASVGDRVTITCRASQSISSYLNWYQQKPGKAPKLLIYAASSLQSGVPSRFSGSGSGTDFTLTISSLQPEDFATYYCQQSDILYTFGGGTKVEIK | 20.3 | 80 |
| Antibody 58 (antibody, V domains shown, Purified as IgG; compared with an IgG1 isotype control and detected with anti-human IgG Fc; also called antibody clone number 58; clone 58) VH: EVQLVESGGGLVQPGRSLRLSCTASGFTFGDYAMSWFRQAPGKGLEWVGFIGSKFYGGETEYTASVKGRFTISRDGSKSIAYLQMNSLKTEDTAVYYCARGPRRYTYGMDVWGQGTTVTVSS VL: DIQMTQSPSSLSASVGDRVTITCRASQSISSYLNWYQQKPGKAPKLLIYAASSLQSGVPSRFSGSGSGTDFTLTISSLQPEDFATYYCQQSSTPLTFGGGTKVEIK | 85.7 | 97.3 |
